Drawing on article PMC10248797, this text covers Kd for one substance.

One may read the Kd as the constant that tells how readily two partners part at equilibrium.

The target of assay [1] is Lis1 with N-terminal HaloTag (UniProt P43034). The experiment in a line: pull-down; depletion of dynein from solution by Lis1 (0-600 nM) coupled to magnetic beads via its N-terminal HaloTag; SDS-PAGE densitometry of the supernatant; one-site fit with Bmax set to 1.
For assay [2], the target named is Full-length Ndel1 with N-terminal HaloTag and C-terminal 6X-His tag (UniProt Q9GZM8). The experiment in a line: pull-down; depletion of 5 nM dynein from solution by Ndel1 (0-600 nM) coupled to Magne HaloTag beads; 45 min; binding buffer 30 mM Hepes pH 7.4, 2 mM magnesium acetate, 1 mM EGTA, 10% glycerol, 1 mM DTT, 1 mg/ml casein, 0.1% NP-40, 1 mM ADP, 36 mM KCl; SDS-PAGE densitometry of the supernatant; one-site fit with Bmax set to 1.

Assay [3] deals with Full-length phosphomimetic Ndel1 (S198D; T219D; S231D; S242D) with N-terminal HaloTag and C-terminal 6X-His tag (UniProt Q9GZM8). Described as above.
Assay [4] has as its target N-terminal coiled coil of Ndel1 (1-192) with N-terminal HaloTag and C-terminal 6X-His tag (UniProt Q9GZM8). Described as above.
The target of assay [5] is Ndel1 with the C-terminal coiled coil (256-291) deleted, N-terminal HaloTag and C-terminal 6X-His tag (UniProt Q9GZM8). The description is as above.
Ndel1 with the C-terminal coiled coil (256-291) deleted, N-terminal HaloTag and C-terminal 6X-His tag, sequence (Q9GZM8 other isoform, or with tags, fused parts or gaps): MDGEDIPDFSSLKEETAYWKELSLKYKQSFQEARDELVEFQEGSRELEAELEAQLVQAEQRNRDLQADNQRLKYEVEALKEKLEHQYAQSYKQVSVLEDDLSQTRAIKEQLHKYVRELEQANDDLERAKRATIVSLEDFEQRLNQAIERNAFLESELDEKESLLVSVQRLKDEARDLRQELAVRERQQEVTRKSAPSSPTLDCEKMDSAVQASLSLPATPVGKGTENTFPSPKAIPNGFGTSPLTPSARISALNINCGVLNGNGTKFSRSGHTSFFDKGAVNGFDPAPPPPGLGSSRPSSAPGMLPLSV

Full-length phosphomimetic Ndel1 (S198D; T219D; S231D; S242D) with N-terminal HaloTag and C-terminal 6X-His tag, sequence (Q9GZM8 whole entry S198D/T219D/S231D/S242D): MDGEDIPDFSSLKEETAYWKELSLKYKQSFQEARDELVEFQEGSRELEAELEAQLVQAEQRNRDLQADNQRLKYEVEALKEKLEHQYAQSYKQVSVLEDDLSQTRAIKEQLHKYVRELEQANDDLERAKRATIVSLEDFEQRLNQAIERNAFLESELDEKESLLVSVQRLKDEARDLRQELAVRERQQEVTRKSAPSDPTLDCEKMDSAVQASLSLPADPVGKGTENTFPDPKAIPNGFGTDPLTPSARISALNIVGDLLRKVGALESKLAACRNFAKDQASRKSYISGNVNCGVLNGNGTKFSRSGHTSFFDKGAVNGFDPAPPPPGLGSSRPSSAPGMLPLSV
Full-length Ndel1 with N-terminal HaloTag and C-terminal 6X-His tag, sequence (Q9GZM8 whole entry): as the sequence (Q9GZM8 whole entry S198D/T219D/S231D/S242D) above, with D198S, D219T, D231S, D242S counted along it
Lis1 with N-terminal HaloTag, sequence (P43034 whole entry): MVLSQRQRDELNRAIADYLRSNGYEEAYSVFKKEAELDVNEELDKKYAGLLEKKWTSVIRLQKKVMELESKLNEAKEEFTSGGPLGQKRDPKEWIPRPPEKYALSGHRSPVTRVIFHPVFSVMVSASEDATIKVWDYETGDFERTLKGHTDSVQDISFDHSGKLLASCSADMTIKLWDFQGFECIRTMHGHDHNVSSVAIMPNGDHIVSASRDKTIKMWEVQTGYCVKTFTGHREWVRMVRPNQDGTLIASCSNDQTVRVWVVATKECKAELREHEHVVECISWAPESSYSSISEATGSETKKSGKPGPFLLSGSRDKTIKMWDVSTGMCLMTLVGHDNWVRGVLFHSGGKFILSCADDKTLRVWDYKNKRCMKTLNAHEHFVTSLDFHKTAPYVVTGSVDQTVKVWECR
N-terminal coiled coil of Ndel1 (1-192) with N-terminal HaloTag and C-terminal 6X-His tag, sequence (Q9GZM8 1-192): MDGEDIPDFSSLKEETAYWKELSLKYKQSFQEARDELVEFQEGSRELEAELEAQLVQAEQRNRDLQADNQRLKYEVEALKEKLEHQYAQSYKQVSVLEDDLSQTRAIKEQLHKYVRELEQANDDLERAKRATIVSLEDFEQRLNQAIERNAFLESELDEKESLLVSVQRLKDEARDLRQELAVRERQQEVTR

Regarding “SNAP-tagged, recombinant full-length human cytoplasmic dynein-1 with all associated accessory chains (from UniProt Q14204 1-4646; O43237 1-492; P63172 1-113; Q9NP97 1-96; P63167 1-89) (complex)”, the Kd in assay [1] was determined as 0.101 µM; in assay [2] it was 0.0328 µM; in assay [3] it was 0.0158 µM; in assay [4] it was 0.0793 µM; in assay [5], 0.0551 µM.
